The results in this text go back to US6426070.

Data set [1] deals with recombinant human eosinophil cationic protein (rhECP), baculovirus-derived, C-terminal FLAG (human) (UniProt P12724). The experiment in a line: cell-based or functional assay.
Data set [2] concerns the target T1, placental ribonuclease inhibitor (RI), P13489.
T1 chain: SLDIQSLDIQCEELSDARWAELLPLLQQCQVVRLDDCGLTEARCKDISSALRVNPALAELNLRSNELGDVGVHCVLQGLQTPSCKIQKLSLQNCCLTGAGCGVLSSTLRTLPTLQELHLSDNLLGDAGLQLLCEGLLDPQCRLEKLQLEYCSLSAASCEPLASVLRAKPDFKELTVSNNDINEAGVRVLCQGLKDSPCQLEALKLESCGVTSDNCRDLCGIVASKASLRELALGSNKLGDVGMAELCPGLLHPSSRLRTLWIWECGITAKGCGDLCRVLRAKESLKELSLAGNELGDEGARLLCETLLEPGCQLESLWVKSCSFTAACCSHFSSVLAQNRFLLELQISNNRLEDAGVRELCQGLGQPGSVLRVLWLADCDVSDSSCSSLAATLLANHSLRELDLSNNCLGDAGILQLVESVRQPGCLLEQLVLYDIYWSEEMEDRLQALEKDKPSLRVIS

As to “placental ribonuclease inhibitor (RI) (from UniProt P13489 2-461)”, the infectious units/ml RSV-B after 500 nM rhECP + 400U RI (500 nM rhECP alone: 660 +/- 28) (infectious units/ml) in data set [1] was 1690.

B1: recombinant human eosinophil cationic protein (rhECP), baculovirus-derived, C-terminal FLAG (protein)
chain: RPPQFTRAQWFAIQHISLNPPRCTIAMRAINNYRWRCKNQNTFLRTTFANVVNVCGNQSIRCPHNRTLNNCHRSRFRVPLLHCDLINPGAQNISNCTYADRPGRRFYVVACDNRDPRDSPRYPVVPVHLDTTIDYKDDDDK
In the case of B1, in data set [2], the “ribonuclease activity (pmol/min) at fixed enzyme (rhECP) and substrate (tRNA) concentrations with increasing concentrations of RI” value is listed as “These results demonstrate that rhECP is sensitive to the inhibitory effects of RI”.
